Reference: patent US20070184522A1, “Cell death modulation via antagonists of Fasl and Fas activation” (University of Pittsburgh of the Commonwealth System of …, priority 2004, published 2007)
“Also recorded” adds a separate entry of the source.

How the values were obtained:
[1] = test system: Fas self-assembly in Hepa 1-6 cells; experiment: FRET assay of CFP-Fas/YFP-Fas in transfected Hepa 1-6 cells; type: cell-based; settings: Hepa 1-6 cells, CFP-Fas and YFP-Fas, FasL with AlphaMet
Protocol: FIG. 3a presents data collected from Jurkat cells (1×10^6) treated with 2 μg/ml of Fas Ligand with or without AlphaMet for 30 minutes on ice. Cells were washed with PBS twice and then incubated with 2 mM of DTSSP in PBS for 30 minutes. The crosslinking process was stopped by 20 mM of Tris (pH 7.5) for another 30 minutes. Cells were spun down and washed with PBS twice and lyzed in RIPA buffer. Cell lysates were subjected to SDS-PAGE under non-reducing or reducing conditions (FIG. 3b) and Western blot analysis using the mouse monoclonal antibody against human Fas. FIG. 3c depicts the quantification of the data in FIG. 3a by densitometry. The data are the mean and SE from three different independent crosslinking and Western blot experiments. […] Frame A: Acceptor CFP-Fas image; Frame B: Acceptor pre-bleach CFP-Fas image; Frame C: Acceptor post-bleach image. Frame D: Donor YFP-Fas image; Frame E: Donor pre-bleach image; Frame F: Donor pre-bleach image. […] Cells were fixed and analyzed by fluorescence microscopy. […]
FRET assay. […] Fret efficiency (E) was calculated as FRETeff=(Dpost−Dpre)/Dpost (Dpost and Dpre are the mean emission intensity […] YFP bleaching).
Fluorescence protein tagged Fas molecules and Hepa 1-6 cells were used for these experiments. […] In these experiments the percent of Fas capping was also determined.

[2] = target: T1, Fas on Jurkat cells (Homo sapiens, UniProt P25445); experiment: Immunostaining of cell surface FasL binding on Jurkat cells; type: cell-based; settings: 4° C. 30 minutes
T1 construct: endogenous in cells; host or cells: Jurkat
T1 sequence (P25445 26-335): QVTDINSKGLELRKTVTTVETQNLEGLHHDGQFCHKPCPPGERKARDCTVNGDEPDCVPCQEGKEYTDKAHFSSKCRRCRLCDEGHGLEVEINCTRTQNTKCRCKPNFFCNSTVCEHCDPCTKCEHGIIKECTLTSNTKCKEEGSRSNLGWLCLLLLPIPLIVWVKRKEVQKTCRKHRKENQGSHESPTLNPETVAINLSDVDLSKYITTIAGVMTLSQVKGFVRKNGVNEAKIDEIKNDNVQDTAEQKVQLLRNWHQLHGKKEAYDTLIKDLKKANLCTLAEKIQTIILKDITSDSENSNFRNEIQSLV
Protocol: This antibody also recognizes Fas-Fc which is also tagged at the C-terminus by His. In FIG. 2b, a fixed amount of purified recombinant Fas-ligand was added to Fas-Fc in the absence or presence of increasing amounts of AlphaMet as indicated. Samples were subjected to pull down using proteinA agarose followed by Western blot using a polyclonal rabbit anti-FasL antibody. […] Fas ligand (1 μg/ml) was coated in the wells of a microtiter plate (triplicate wells) then 1 μg/ml of Fas-Fc was added in the absence or presence of an increasing amount of the indicated polypeptide. A 13 mer YLGA polypeptide derived from FasL also was synthesized and used. The control peptide was a scrambled 13 mer. Anti human IgM-HRP conjugates were used to detect the bound Fas-Fc. […] One-way ANOVA was carried out for determination of statistical significance. […] Cells (3×10^5) were plated in 24-well plates having Poly-L-Lysine pre-treated cover glass. 2 μg/ml of Fas ligand was added and the cells were incubated for 30 min on ice. Cells were then washed by PBS twice, and were subjected to immunostaining using anti-Fas ligand antibody and fluorescent microscopy. […]
Abrogation of Fas-FasL binding by the presence of the synthetic polypeptides corresponding to the AlphaMet YLGA (SEQ ID NO:1) motif was then analyzed. […]

cell surface FasL binding to Fas [2]: blocked
B1: alpha subunit of Met (AlphaMet), amino acid residues 1 to 306, His-tagged (receptor, mouse)
chain: MKAPTVLAPGILVLLLSLVQRSHGECKEALVKSEMNVNMKYQLPNFTAETPIQNVVLHGHHIYLGATNYIYVLNDKDLQKVSEFKTGPVLEHPDCLPCRDCSSKANSSGGVWKDNINMALLVDTYYDDQLISCGSVNRGTCQRHVLPPDNSADIQSEVHCMFSPEEESGQCPDCVVSALGAKVLLSEKDRFINFFVGNTINSSYPPGYSLHSISVRRLKETQDGFKFLTDQSYIDVLPEFLDSYPIKYIHAFESNHFIYFLTVQKETLDAQTFHTRIIRFCSVDSGLHSYMEMPLECILTEKRRKRHHHHHH
FasL-induced FRET [1]: no significant FRET could be detected; also recorded: inhibited the FasL-induced FRET phenomenon
